Consider 1 molecule from paper PMC4325844 (Molecular Biology of the Cell, 2015).

For the test, the target named is GST–PAR3-2N (UniProt Q9Z340 252-697). The test is described as follows: pull-down.
Sequence of GST–PAR3-2N (Q9Z340 252-697): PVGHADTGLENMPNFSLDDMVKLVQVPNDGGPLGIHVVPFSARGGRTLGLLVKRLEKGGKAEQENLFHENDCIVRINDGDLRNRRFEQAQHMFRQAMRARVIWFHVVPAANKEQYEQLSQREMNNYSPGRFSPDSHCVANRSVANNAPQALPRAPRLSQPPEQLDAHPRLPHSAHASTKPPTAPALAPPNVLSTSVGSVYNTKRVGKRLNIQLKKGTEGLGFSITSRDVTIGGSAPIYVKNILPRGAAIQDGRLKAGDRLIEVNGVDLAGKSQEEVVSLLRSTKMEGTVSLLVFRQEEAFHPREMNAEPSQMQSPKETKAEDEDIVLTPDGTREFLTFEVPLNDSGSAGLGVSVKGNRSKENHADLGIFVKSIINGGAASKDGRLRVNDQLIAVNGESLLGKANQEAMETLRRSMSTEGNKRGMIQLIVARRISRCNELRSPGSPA

B1: MBP–CLASP2-N2 (domain or fragment, UniProt O75122 310-670, looked up)
chain: SSGSVASLPQSDRSSSSSQESLNRPFSSKWSTANPSTVAGRVSAGSSKASSLPGSLQRSRSDIDVNAAAGAKAHHAAGQSVRSGRLGAGALNAGSYASLEDTSDKLDGTASEDGRVRAKLSAPLAGMGNAKADSRGRSRTKMVSQSQPGSRSGSPGRVLTTTALSTVSSGVQRVLVNSASAQKRSKIPRSQGCSREASPSRLSVARSSRIPRPSVSQGCSREASRESSRDTSPVRSFQPLASRHHSRSTGALYAPEVYGASGPGYGISQSSRLSSSVSAMRVLNTGSDVEEAVADALKKPARRRYESYGMHSDDDANSDASSACSERSYSSRNGSIPTYMRQTEDVAEVLNRCASSNWSER
Turning to B1, the Kd was roughly 6 nM.
